Assay results: patent US20260167721A1 (ABLEXIS, published 2026)
Numbering of substitutions follows the chain as printed.

B1: CD3 × CD33-BspAb85 (bispecific antibody)
chain 1: EVQLVESGGGLVKPGGSLRLSCAASGFTFSSYSMNWVRQAPGKCLEWVSSISRSSGYIFYADSVKGRFTISRDNAKNSLYLQMNSLRAEDTAVYYCVRERVGAGFDYWGQGTLVTVSSGGGGSGGGGSGGGGSGGGGSNFMLTQPHSVSESPGKTVAISCTRSSGSIASNYVQWYQQRPGSSPTAVIYEDNQRPSGVPDRFSGSIDSSSNSAFLTISGLKTEDEADYYCQSYDSSNRVFGCGTKLTVLDKTHTCPPCPAPEFEGGPSVFLFPPKPKDTLMISRTPEVTCVVVDVSHEDPEVKFNWYVDGVEVHNAKTKPREEQYNSTYRVVSVLTVLHQDWLNGKEYKCKVSNKALPASIEKTISKAKGQPREPQVYTLPPCREEMTKNQVSLWCLVKGFYPSDIAVEWESNGQPENNYKTTPPVLDSDGSFFLYSKLTVDKSRWQQGNVFSCSVMHEALHNHYTQKSLSLSPGK
chain 2: EVQLVQSGAEVKKPGSSVKVSCKASGYTITDSNIHWVRQAPGQSLEWIGYIYPYNGGTDYNQKFKNRATLTVDNPTNTAYMELSSLRSEDTAFYYCVNGNPWLAYWGQGTLVTVSSASTKGPSVFPLAPSSKSTSGGTAALGCLVKDYFPEPVTVSWNSGALTSGVHTFPAVLQSSGLYSLSSVVTVPSSSLGTQTYICNVNHKPSNTKVDKRVEPKSCDKTHTCPPCPAPEFEGGPSVFLFPPKPKDTLMISRTPEVTCVVVDVSHEDPEVKFNWYVDGVEVHNAKTKPREEQYNSTYRVVSVLTVLHQDWLNGKEYKCKVSNKALPASIEKTISKAKGQPREPQVCTLPPSREEMTKNQVSLSCAVKGFYPSDIAVEWESNGQPENNYKTTPPVLDSDGSFFLVSKLTVDKSRWQQGNVFSCSVMHEALHNRFTQKSLSLSPGK
chain 3: DIQLTQSPSTLSASVGDRVTITCRASESLDNYGIRFLTWFQQKPGKAPKLLMYAASNQGSGVPSRFSGSGSGTEFTLTISSLQPDDFATYYCQQTKEVPWSFGQGTKVEVKRTVAAPSVFIFPPSDEQLKSGTASVVCLLNNFYPREAKVQWKVDNALQSGNSQESVTEQDSKDSTYSLSSTLTLSKADYEKHKVYACEVTHQGLSSPVTKSFNRGEC
B2: CD3 × CD33-BspAb90 (bispecific antibody)
chain 1: not shown
chain 2: B1 chain 2
chain 3: B1 chain 3
B3: CD3 × CD33-BspAb86 (bispecific antibody)
chain 1: EVQLVESGGGLVKPGGSLRLSCAASGFTFSSYSMNWVRQAPGKCLEWVSSISRSGTYIYYADSVKGRFTISRDNAKNSLYLQMNSLRAEDTAVYYCARERWELLYFDYWGQGTLVTVSSGGGGSGGGGSGGGGSGGGGSQTVVTQEPSLTVSPGGTVTLTCASSTGAVTSGYYPNWFQQKPGQAPRALIYSTSNKHSWTPARFSGSLLGGKAALTLSGVQPEDEAEYYCLLYYGGAYVFGCGTKVTVLDKTHTCPPCPAPEFEGGPSVFLFPPKPKDTLMISRTPEVTCVVVDVSHEDPEVKFNWYVDGVEVHNAKTKPREEQYNSTYRVVSVLTVLHQDWLNGKEYKCKVSNKALPASIEKTISKAKGQPREPQVYTLPPCREEMTKNQVSLWCLVKGFYPSDIAVEWESNGQPENNYKTTPPVLDSDGSFFLYSKLTVDKSRWQQGNVFSCSVMHEALHNHYTQKSLSLSPGK
chain 2: B1 chain 2
chain 3: B1 chain 3
B4: CD3 × CD33-BspAb125 (bispecific antibody)
chain 1: not shown
chain 2: B1 chain 2
chain 3: B1 chain 3
B5: High affinity Control (Control Humanized anti-CD3 (high affinity) scFv-Fc knob/TM x gemtuzumab) (bispecific antibody)
chain: EVQLVESGGGLVQPGGSLRLSCAASGFTFSTYAMNWVRQAPGKGLEWVGRIRSKYNNYATYYADSVKGRFTISRDDSKNTLYLQMNSLRAEDTAVYYCVRHGNFGDSYVSWFAYWGQGTLVTVSSGKPGSGKPGSGKPGSGKPGSQAVVTQEPSLTVSPGGTVTLTCGSSTGAVTTSNYANWVQQKPGKSPRGLIGGTNKRAPGVPARFSGSLLGGKAALTISGAQPEDEADYYCALWYSNHWVFGGGTKLTVLGGGGSDKTHTCPPCPAPEFEGGPSVFLFPPKPKDTLMISRTPEVTCVVVDVSHEDPEVKFNWYVDGVEVHNAKTKPREEQYNSTYRVVSVLTVLHQDWLNGKEYKCKVSNKALPASIEKTISKAKGQPREPQVYTLPPCREEMTKNQVSLWCLVKGFYPSDIAVEWESNGQPENNYKTTPPVLDSDGSFFLYSKLTVDKSRWQQGNVFSCSVMHEALHNHYTQKSLSLSPGK
heavy: B1 chain 2
light: B1 chain 3
B6: Low affinity Control (Control Humanized anti-CD3 (low affinity) scFv-Fc knob/TM x gemtuzumab) (bispecific antibody)
chain: B5 chain with A113D
heavy: B1 chain 2
light: B1 chain 3
B7: Gemtuzumab (antibody, V domains shown)
VH: EVQLVQSGAEVKKPGSSVKVSCKASGYTITDSNIHWVRQAPGQSLEWIGYIYPYNGGTDYNQKFKNRATLTVDNPTNTAYMELSSLRSEDTAFYYCVNGNPWLAYWGQGTLVTVSS
VL: DIQLTQSPSTLSASVGDRVTITCRASESLDNYGIRFLTWFQQKPGKAPKLLMYAASNQGSGVPSRFSGSGSGTEFTLTISSLQPDDFATYYCQQTKEVPWSFGQGTKVEVKR

Biological target: T1, human CD3 (on human Pan-T cells or donor PBMC) (human, UniProt P07766 23-207; P04234 22-171; P09693 23-182; P20963 22-164)
T1 sequence (P07766 23-207, chain 1 of 4): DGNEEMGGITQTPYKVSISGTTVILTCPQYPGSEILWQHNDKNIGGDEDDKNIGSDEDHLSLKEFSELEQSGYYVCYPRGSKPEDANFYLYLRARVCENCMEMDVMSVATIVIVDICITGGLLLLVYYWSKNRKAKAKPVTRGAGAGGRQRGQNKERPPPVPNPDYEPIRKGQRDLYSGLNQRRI
T1 sequence (P04234 22-171, chain 2 of 4): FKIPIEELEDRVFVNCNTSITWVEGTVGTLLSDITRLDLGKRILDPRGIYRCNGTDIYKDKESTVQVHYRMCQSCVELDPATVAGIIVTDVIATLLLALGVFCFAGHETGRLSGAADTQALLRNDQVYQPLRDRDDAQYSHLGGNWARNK
T1 sequence (P09693 23-182, chain 3 of 4): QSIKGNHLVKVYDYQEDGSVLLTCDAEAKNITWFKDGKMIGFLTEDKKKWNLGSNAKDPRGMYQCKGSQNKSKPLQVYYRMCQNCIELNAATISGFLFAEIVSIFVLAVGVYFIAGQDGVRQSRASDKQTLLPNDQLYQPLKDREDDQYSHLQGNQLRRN
T1 sequence (P20963 22-164, chain 4 of 4): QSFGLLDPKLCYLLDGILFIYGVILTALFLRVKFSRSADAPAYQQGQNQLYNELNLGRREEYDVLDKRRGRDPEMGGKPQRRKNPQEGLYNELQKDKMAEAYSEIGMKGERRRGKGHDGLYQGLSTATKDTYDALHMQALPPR
Assay: cell-based or functional assay

Row | RTCC Assay, Donor 0, EC50 | RTCC Assay, Donor 0, gMFI max | RTCC Assay, Donor 1, EC50 | RTCC Assay, Donor 1, gMFI max | RTCC Assay, Donor 2, EC50 | RTCC Assay, Donor 2, gMFI max | RTCC Assay, Donor 3, EC50 | RTCC Assay, Donor 3, gMFI max | Binder
1 | 0.102 nM | 29900 gMFI | 0.006 nM | 78200 gMFI | 0.028 nM | 64200 gMFI | 0.045 nM | 85600 gMFI | B1
2 | 0.147 nM | 34800 gMFI | 0.012 nM | 76900 gMFI | 0.034 nM | 62300 gMFI | 0.047 nM | 84000 gMFI | B2
3 | 1.71 nM | 24100 gMFI | 0.151 nM | 67300 gMFI | 0.697 nM | 59100 gMFI | 1.58 nM | 83500 gMFI | B3

Biological target: T1, human CD3 (on human Pan-T cells or …)
Assay: cell-based or functional assay
Remark: another data set of the same source

Row | Cytokine Release Assay (IFNγ), Donor 0, EC50 | Cytokine Release Assay (IFNγ), Donor 0, gMFI max | Cytokine Release Assay (IFNγ), Donor 1, gMFI max | Cytokine Release Assay (IFNγ), Donor 2, EC50 | Cytokine Release Assay (IFNγ), Donor 2, gMFI max | Cytokine Release Assay (IFNγ), Donor 3, gMFI max | Cytokine Release Assay (IFNγ), Donor 3, EC50 | Binder
4 | 0.0832 nM | 983000 gMFI | 8040 gMFI | 0.0468 nM | 31400 gMFI | 104000 gMFI |  | B1
5 | 0.191 nM | 1.71e+06 gMFI | 10800 gMFI | 0.126 nM | 31600 gMFI | 513000 gMFI | 0.0851 nM | B2
6 | 2.35 nM | 573000 gMFI | 4690 gMFI | 2.68 nM | 18500 gMFI | 152000 gMFI | 7.93 nM | B3

Biological target: T2, CD3 on human donor PBMC / Pan T effector cells (human, UniProt P07766 23-207; P09693 23-182; P04234 22-171; P20963 22-164)
T2 sequence (P07766 23-207, chain 1 of 4): as the sequence (P07766 23-207, chain 1 of 4) above
T2 sequence (P09693 23-182, chain 2 of 4): as the sequence (P09693 23-182, chain 3 of 4) above
T2 sequence (P04234 22-171, chain 3 of 4): as the sequence (P04234 22-171, chain 2 of 4) above
T2 sequence (P20963 22-164, chain 4 of 4): as the sequence (P20963 22-164, chain 4 of 4) above
Assay: cell-based or functional assay

Row | Cytokine Release Assay (IL2) Donor 0 EC50 | Cytokine Release Assay (IL2) Donor 0 gMFI max | Cytokine Release Assay (IL2) Donor 1 EC50 | Cytokine Release Assay (IL2) Donor 1 gMFI max | Cytokine Release Assay (IL2) Donor 2 EC50 | Cytokine Release Assay (IL2) Donor 2 gMFI max | Cytokine Release Assay (IL2) Donor 3 gMFI max | Cytokine Release Assay (IL2) Donor 3 EC50 | Binder
7 | 0.105 nM | 52800 gMFI | 0.102 nM | 22300 gMFI | 0.115 nM | 25100 gMFI | 65800 gMFI |  | B4
8 | 0.456 nM | 377000 gMFI | 1.64 nM | 179000 gMFI | 16.7 nM | 121000 gMFI | 347000 gMFI | 0.172 nM | B5
9 | 2.29 nM | 24300 gMFI | 10.8 nM | 18500 gMFI |  | 15700 gMFI | 21200 gMFI | 2.92 nM | B6
10 | 5.36 nM | 12500 gMFI |  | 12900 gMFI |  | 10700 gMFI | 12200 gMFI |  | B7

Biological target: T2, CD3 on human donor PBMC / Pan T …
Assay: cell-based or functional assay
Remark: another data set of the same source

Row | Cytokine Release Assay (TNFα) Donor 0 EC50 | Cytokine Release Assay (TNFα) Donor 0 gMFI max | Cytokine Release Assay (TNFα) Donor 1 gMFI max | Cytokine Release Assay (TNFα) Donor 2 EC50 | Cytokine Release Assay (TNFα) Donor 2 gMFI max | Cytokine Release Assay (TNFα) Donor 3 EC50 | Cytokine Release Assay (TNFα) Donor 3 gMFI max | Cytokine Release Assay (TNFα) Donor 1 EC50 | Binder
11 | 0.475 nM | 39600 gMFI | 5100 gMFI | 0.054 nM | 12000 gMFI | 0.0446 nM | 17800 gMFI |  | B4
12 | 0.459 nM | 231000 gMFI | 113000 gMFI | 5.98 nM | 125000 gMFI | 0.212 nM | 129000 gMFI | 13.1 nM | B5
13 | 0.549 nM | 222000 gMFI | 82800 gMFI | 24.6 nM | 135000 gMFI | 40.7 nM | 122000 gMFI |  | B6
14 |  | 5310 gMFI | 4430 gMFI |  | 3680 gMFI |  | 3960 gMFI |  | B7
